Series [1] deals with the molecule itself. Nature of the series: cryo-EM structure.
In series [2] the target is T1, transcription termination factor ρ variant P167L (ρ^P167L), purified (E. coli, UniProt P0AG30, P167L). The series is described as follows: stopped-flow/FRET.
In series [3] the target is T1, transcription termination factor ρ …. Nature of the series: SEC. For orientation: Size exclusion chromatography separates by hydrodynamic size, large species first.

B1: phage P4 polarity suppression protein Psu, wild-type (Psu^wt), purified (natural protein)
chain: MESTALQQAFDTCQNNKAAWLQRKNELAAAEQEYLRLLSGEGRNVSRLDELRNIIEVRKWQVNQAAGRYIRSHEAVQHISIRDRLNDFMQQHGTALAAALAPELMGYSELTAIARNCAIQRATDALREALLSWLAKGEKINYSAQDSDILTTIGFRPDVASVDDSREKFTPAQNMIFSRKSAQLASRQSV
As a reminder, the stoichiometry N is the number of molecules, sites or subunits per partner or assembly. As for B1, in series [1], the “stoichiometry N” value came to 2. Moreover, in series [2], the binding result is on record as “binds”.

B2: Psu variant R43A (Psu^R43A), purified (natural protein)
chain: MESTALQQAFDTCQNNKAAWLQRKNELAAAEQEYLRLLSGEGANVSRLDELRNIIEVRKWQVNQAAGRYIRSHEAVQHISIRDRLNDFMQQHGTALAAALAPELMGYSELTAIARNCAIQRATDALREALLSWLAKGEKINYSAQDSDILTTIGFRPDVASVDDSREKFTPAQNMIFSRKSAQLASRQSV
B2: the binding result in series [3] is “binds”.

These data come from paper doi:10.1101/2023.06.22.546067 (bioRxiv, 2023).
